We go through one molecule from patent publication US20090317364A1, “NOVEL COMPOSITIONS FOR PREVENTION AND TREATMENT OF MASTITIS AND METRITIS” (priority 2006, published 2009).

Test [1] has as its system Staphylococcus. aureus. The experiment in a line: Lab trials 2a (in vitro) for synergy, components added in wells for diffusion. In kind it is cell-based. The text has this:
a) Lab trials 2a (in vitro) for synergy.

Test [2] deals with Staphylococcus. aureus. As to the kind of experiment: Lab trials 2b (in vitro) for synergy, components added on top of the culture. Format: cell-based. The text has this:
b) Lab trials 2b (in vitro) for synergy.

B1: Serratiopeptidase (protein, UniProt P07268 17-487, looked up)
Serralysin: AATTGYDAVDDLLHYHERGNGIQINGKDSFSNEQAGLFITRENQTWNGYKVFGQPVKLTFSFPDYKFSSTNVAGDTGLSKFSAEQQQQAKLSLQSWADVANITFTEVAAGQKANITFGNYSQDRPGHYDYGTQAYAFLPNTIWQGQDLGGQTWYNVNQSNVKHPATEDYGRQTFTHEIGHALGLSHPGDYNAGEGNPTYRDVTYAEDTRQFSLMSYWSETNTGGDNGGHYAAAPLLDDIAAIQHLYGANLSTRTGDTVYGFNSNTGRDFLSTTSNSQKVIFAAWDAGGNDTFDFSGYTANQRINLNEKSFSDVGGLKGNVSIAAGVTIENAIGGSGNDVIVGNAANNVLKGGAGNDVLFGGGGADELWGGAGKDIFVFSAASDSAPGASDWIRDFQKGIDKIDLSFFNKEAQSSDFIHFVDHFSGAAGEALLSYNASNNVTDLSVNIGGHQAPDFLVKIVGQVDVATDFIV
notes: proteolytic enzyme isolated from the non-pathogenic Enterobacteria Serratia E15, CAS 37312-62-2
B1: the “Inhibition zone diameter In cm for Staphylococcus. aureus” value in test [1] came out at 0.5 cm. Also, in test [2], the “Inhibition zone In diameter cm for Staphylococcus. aureus” value worked out at 0.61 cm.
